Laboratory results from IntAct's records for PubMed 22664871.

B1: Tumor necrosis factor ligand superfamily member 11 (Homo sapiens), O14788 (parent)
chain: MRRASRDYTKYLRGSEEMGGGPGAPHEGPLHAPPPPAPHQPPAASRSMFVALLGLGLGQVVCSVALFFYFRAQMDPNRISEDGTHCIYRILRLHENADFQDTTLESQDTKLIPDSCRRIKQAFQGAVQKELQHIVGSQHIRAEKAMVDGSWLDLAKRSKLEAQPFAHLTINATDIPSGSHKVSLSSWYHDRGWAKISNMTFSNGKLIVNQDGFYYLYANICFRHHETSGDLATEYLQLMVYVTKTSIKIPSSHTLMKGGSTKYWSGNSEFHFYSINVGGFFKLRSGEEISIEVSNPSLLDPDQDATYFGAFKVRDID
partner: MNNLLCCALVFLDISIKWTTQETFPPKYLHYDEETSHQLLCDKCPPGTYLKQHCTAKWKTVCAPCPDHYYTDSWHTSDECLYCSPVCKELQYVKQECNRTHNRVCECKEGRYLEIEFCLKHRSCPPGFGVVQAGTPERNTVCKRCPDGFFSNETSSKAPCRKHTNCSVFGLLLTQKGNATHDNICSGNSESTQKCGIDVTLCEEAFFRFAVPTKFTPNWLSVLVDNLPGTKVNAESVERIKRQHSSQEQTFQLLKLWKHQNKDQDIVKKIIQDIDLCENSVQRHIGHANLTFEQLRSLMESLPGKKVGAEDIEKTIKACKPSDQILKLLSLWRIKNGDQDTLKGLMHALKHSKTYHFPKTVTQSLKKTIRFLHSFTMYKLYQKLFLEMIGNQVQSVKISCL
B2: Tumor necrosis factor ligand superfamily member 11 (Homo sapiens), O14788 (parent)
chain: B1 chain
partner: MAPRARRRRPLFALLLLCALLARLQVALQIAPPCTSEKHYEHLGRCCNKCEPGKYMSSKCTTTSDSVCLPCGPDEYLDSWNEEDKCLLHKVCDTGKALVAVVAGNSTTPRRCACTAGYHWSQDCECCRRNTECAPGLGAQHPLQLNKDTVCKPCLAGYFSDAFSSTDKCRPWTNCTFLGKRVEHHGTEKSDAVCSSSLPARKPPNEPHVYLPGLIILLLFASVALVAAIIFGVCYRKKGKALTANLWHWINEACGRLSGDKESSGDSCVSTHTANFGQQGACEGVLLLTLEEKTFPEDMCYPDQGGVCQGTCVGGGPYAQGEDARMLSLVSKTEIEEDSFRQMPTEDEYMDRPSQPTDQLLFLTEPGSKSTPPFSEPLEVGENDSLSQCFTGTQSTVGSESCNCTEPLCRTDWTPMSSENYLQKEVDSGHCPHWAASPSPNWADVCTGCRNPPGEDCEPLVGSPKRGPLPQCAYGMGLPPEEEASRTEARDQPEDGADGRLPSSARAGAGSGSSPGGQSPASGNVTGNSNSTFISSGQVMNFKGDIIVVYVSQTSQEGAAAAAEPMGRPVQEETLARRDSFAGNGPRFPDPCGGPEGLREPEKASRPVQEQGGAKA
B3: Tumor necrosis factor receptor superfamily member 11B (Homo sapiens), O00300 (parent)
chain: B1 partner
partner: B1 chain

Variants of: B1
Conditions: with tr11b_human TNFRSF11B

Variant | effect of a mutation on the interaction
MRRASRDYTKYLRGSEEMGGGPGAPHEGPLHAPPPPAPHQPPAASRSMFVALLGLGLGQVVCSVALFFYFRAQMDPNRISEDGTHCIYRILRLHENADFQDTTLESQDTKLIPDSCRRIKQAFQGAVQKELQHIVGSQHIRAEKAMVDGSWLDLAKRSKLEAQPFAHLTINATDIPSGSHKVSLSSWYHDRGWAKISNMTFSNGKLIVNQDGFYYLYANICFRHHETSGDLATEYLQLMVAVTKTSIKIPSSHTLMKGGSTKYWSGNSEFHFYSINVGGFFKLRSGEEISIEVSNPSLLDPDQDATYFGAFKVRDID [Y241A] | decreasing interaction strength
MRRASRDYTKYLRGSEEMGGGPGAPHEGPLHAPPPPAPHQPPAASRSMFVALLGLGLGQVVCSVALFFYFRAQMDPNRISEDGTHCIYRILRLHENADFQDTTLESQDTKLIPDSCRRIKQAFQGAVQKELQHIVGSQHIRAEKAMVDGSWLDLAKRSKLEAQPFAHLTINATDIPSGSHKVSLSSWYHDRGWAKISNMTFSNGKLIVNQDGFYYLYANICFAHHETSGDLATEYLQLMVYVTKTSIKIPSSHTLMKGGSTKYWSGNSEFHFYSINVGGFFKLRSGEEISIEVSNPSLLDPDQDATYFGAFKVRDID [R223A] | disrupting interaction strength
MRRASRDYTKYLRGSEEMGGGPGAPHEGPLHAPPPPAPHQPPAASRSMFVALLGLGLGQVVCSVALFFYFRAQMDPNRISEDGTHCIYRILRLHENADFQDTTLESQDTKLIPDSCRRIKQAFQGAVQKELQHIVGSQHIRAEKAMVDGSWLDLAKRSKLEAQPFAHLTINATDIPSGSHKVSLSSWYHDRGWAKISNMTFSNGKLIVNQDGFYYLYANICFRHHETSGDLATEYLQLMVYVTKTSIKIPSSHTLMAGGSTKYWSGNSEFHFYSINVGGFFKLRSGEEISIEVSNPSLLDPDQDATYFGAFKVRDID [K257A] | disrupting interaction strength

Variants of: B2
Conditions: with tnr11_human TNFRSF11A

Variant | effect of a mutation on the interaction
MRRASRDYTKYLRGSEEMGGGPGAPHEGPLHAPPPPAPHQPPAASRSMFVALLGLGLGQVVCSVALFFYFRAQMDPNRISEDGTHCIYRILRLHENADFQDTTLESQDTKLIPDSCRRIKQAFQGAVQKELQHIVGSQHIRAEKAMVDGSWLDLAKRSKLEAQPFAHLTINATDIPSGSHKVSLSSWYHDRGWAKISNMTFSNGKLIVNQDGFYYLYANICFRHHETSGDLATEYLQLMVAVTKTSIKIPSSHTLMKGGSTKYWSGNSEFHFYSINVGGFFKLRSGEEISIEVSNPSLLDPDQDATYFGAFKVRDID [Y241A] | decreasing interaction strength
MRRASRDYTKYLRGSEEMGGGPGAPHEGPLHAPPPPAPHQPPAASRSMFVALLGLGLGQVVCSVALFFYFRAQMDPNRISEDGTHCIYRILRLHENADFQDTTLESQDTKLIPDSCRRIKQAFQGAVQKELQHIVGSQHIRAEKAMVDGSWLDLAKRSKLEAQPFAHLTINATDIPSGSHKVSLSSWYHDRGWAKISNMTFSNGKLIVNQDGFYYLYANICFAHHETSGDLATEYLQLMVYVTKTSIKIPSSHTLMKGGSTKYWSGNSEFHFYSINVGGFFKLRSGEEISIEVSNPSLLDPDQDATYFGAFKVRDID [R223A] | disrupting interaction strength
MRRASRDYTKYLRGSEEMGGGPGAPHEGPLHAPPPPAPHQPPAASRSMFVALLGLGLGQVVCSVALFFYFRAQMDPNRISEDGTHCIYRILRLHENADFQDTTLESQDTKLIPDSCRRIKQAFQGAVQKELQHIVGSQHIRAEKAMVDGSWLDLAKRSKLEAQPFAHLTINATDIPSGSHKVSLSSWYHDRGWAKISNMTFSNGKLIVNQDGFYYLYANICFRHHETSGDLATEYLQLMVYVTKTSIKIPSSHTLMAGGSTKYWSGNSEFHFYSINVGGFFKLRSGEEISIEVSNPSLLDPDQDATYFGAFKVRDID [K257A] | disrupting interaction strength

Variants of: B3
Conditions: with tnf11_human TNFSF11, O14788

Variant | effect of a mutation on the interaction
MNNLLCCALVFLDISIKWTTQETFPPKYLHYDEETSHQLLCDKCPPGTYLKQHCTAKWKTVCAPCPDHYYTDSWHTSAACLYCSPVCKELQYVKQECNRTHNRVCECKEGRYLEIEFCLKHRSCPPGFGVVQAGTPERNTVCKRCPDGFFSNETSSKAPCRKHTNCSVFGLLLTQKGNATHDNICSGNSESTQKCGIDVTLCEEAFFRFAVPTKFTPNWLSVLVDNLPGTKVNAESVERIKRQHSSQEQTFQLLKLWKHQNKDQDIVKKIIQDIDLCENSVQRHIGHANLTFEQLRSLMESLPGKKVGAEDIEKTIKACKPSDQILKLLSLWRIKNGDQDTLKGLMHALKHSKTYHFPKTVTQSLKKTIRFLHSFTMYKLYQKLFLEMIGNQVQSVKISCL [D78A;E79A] | with no effect
MNNLLCCALVFLDISIKWTTQETFPPKYLHYDEETSHQLLCDKCPPGTYLKQHCTAKWKTVCAPCPDHYYTDSWHTSDECLYCSPVCKELQYVKQECNRTHNRVCECKEGRYLEIAFCLKHRSCPPGFGVVQAGTPERNTVCKRCPDGFFSNETSSKAPCRKHTNCSVFGLLLTQKGNATHDNICSGNSESTQKCGIDVTLCEEAFFRFAVPTKFTPNWLSVLVDNLPGTKVNAESVERIKRQHSSQEQTFQLLKLWKHQNKDQDIVKKIIQDIDLCENSVQRHIGHANLTFEQLRSLMESLPGKKVGAEDIEKTIKACKPSDQILKLLSLWRIKNGDQDTLKGLMHALKHSKTYHFPKTVTQSLKKTIRFLHSFTMYKLYQKLFLEMIGNQVQSVKISCL [E116A] | decreasing interaction strength
